Measured values reported in publication PMC9482650, “Quantitative fragmentomics allow affinity mapping of interactomes” (Nature Communications, 2022).

T1: MPDZ_5, O75970
T1 sequence (O75970 695-796, limits assumed, looked up): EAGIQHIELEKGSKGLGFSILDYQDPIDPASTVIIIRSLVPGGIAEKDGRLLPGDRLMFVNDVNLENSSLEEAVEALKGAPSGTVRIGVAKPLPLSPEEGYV

T2: PDZD7_3, Q9H5P4
T2 sequence (Q9H5P4 857-944, limits assumed, looked up): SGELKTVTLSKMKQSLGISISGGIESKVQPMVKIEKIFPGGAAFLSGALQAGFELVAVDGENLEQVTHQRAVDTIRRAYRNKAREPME

T3: SHANK1, Q9Y566
T3 sequence (Q9Y566 658-767, limits assumed, looked up): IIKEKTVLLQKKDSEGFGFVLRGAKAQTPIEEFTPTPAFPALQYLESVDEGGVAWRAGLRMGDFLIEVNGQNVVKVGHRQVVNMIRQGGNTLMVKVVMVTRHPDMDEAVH

T4: DFNB31_3, Q9P202
T4 sequence (Q9P202 811-907, limits assumed, looked up): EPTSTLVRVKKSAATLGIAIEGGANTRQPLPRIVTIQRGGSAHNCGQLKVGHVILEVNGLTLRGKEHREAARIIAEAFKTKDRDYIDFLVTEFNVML

T5: GRIP1_5, Q9Y3R0
T5 sequence (Q9Y3R0 568-668, limits assumed, looked up): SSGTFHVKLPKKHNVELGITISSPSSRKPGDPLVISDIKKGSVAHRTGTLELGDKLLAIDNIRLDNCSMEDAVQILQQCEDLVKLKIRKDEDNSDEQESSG

T6: PARD3B_1, Q8TEW8
T6 sequence (Q8TEW8 196-299, limits assumed, looked up): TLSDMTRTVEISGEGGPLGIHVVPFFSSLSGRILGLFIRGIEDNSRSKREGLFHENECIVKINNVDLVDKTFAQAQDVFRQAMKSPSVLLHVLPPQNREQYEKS

T7: SIPA1L2, Q9P2F8
T7 sequence (Q9P2F8 945-1036, limits assumed, looked up): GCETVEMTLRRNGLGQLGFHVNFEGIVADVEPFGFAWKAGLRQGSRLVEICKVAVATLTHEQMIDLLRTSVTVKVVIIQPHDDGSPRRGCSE

T8: GRIP1_4, Q9Y3R0
T8 sequence (Q9Y3R0 467-571, limits assumed, looked up): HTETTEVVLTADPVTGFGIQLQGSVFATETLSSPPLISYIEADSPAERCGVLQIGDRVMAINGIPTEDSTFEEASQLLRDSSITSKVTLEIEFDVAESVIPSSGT

T9: FRMPD1, Q5SYB0
T9 sequence (Q5SYB0 52-145, limits assumed, looked up): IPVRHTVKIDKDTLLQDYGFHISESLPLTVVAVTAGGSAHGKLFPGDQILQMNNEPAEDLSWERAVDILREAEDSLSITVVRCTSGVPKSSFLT

T10: LNX2_2, Q8N448
T10 sequence (Q8N448 334-432, limits assumed, looked up): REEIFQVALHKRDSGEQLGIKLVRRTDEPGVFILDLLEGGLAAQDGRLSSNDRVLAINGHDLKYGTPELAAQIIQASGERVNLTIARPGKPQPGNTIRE

T11: APBA1_2, Q02410
T11 sequence (Q02410 742-832, limits assumed, looked up): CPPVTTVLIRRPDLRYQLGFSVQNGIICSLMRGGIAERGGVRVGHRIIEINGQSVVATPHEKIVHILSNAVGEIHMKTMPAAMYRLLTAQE


What was measured:
Assay in all cases: holdup assay
Set-up in all cases: key: below the threshold = too weak to quantify, mostly under pKd 3.1 to 4
Conditions in all cases: plain residues with an end cap or a label only (N-terminal biotin on a linker: ahx)
FRMPD3, Q5JV73 = target: FRMPD3, Q5JV73
MAGI2_3, Q86UL8 = target: MAGI2_3, Q86UL8
MPDZ_5, O75970 = target: T1, MPDZ_5, O75970
PDZD7_3, Q9H5P4 = target: T2, PDZD7_3, Q9H5P4
PTPN3, P26045 = target: PTPN3, P26045
SHANK1, Q9Y566 = target: T3, SHANK1, Q9Y566
LNX1_3, Q8TBB1 = target: LNX1_3, Q8TBB1
DFNB31_3, Q9P202 = target: T4, DFNB31_3, Q9P202
GRIP1_5, Q9Y3R0 = target: T5, GRIP1_5, Q9Y3R0
PARD3B_1, Q8TEW8 = target: T6, PARD3B_1, Q8TEW8
SIPA1L2, Q9P2F8 = target: T7, SIPA1L2, Q9P2F8
Inadl_6, Q8NI35 = target: Inadl_6, Q8NI35
NHERF4_2, Q86UT5 = target: NHERF4_2, Q86UT5
GRIP1_4, Q9Y3R0 = target: T8, GRIP1_4, Q9Y3R0
FRMPD4, Q14CM0 = target: FRMPD4, Q14CM0
FRMPD1, Q5SYB0 = target: T9, FRMPD1, Q5SYB0
Inadl_1, Q8NI35 = target: Inadl_1, Q8NI35
LNX2_2, Q8N448 = target: T10, LNX2_2, Q8N448
PDZRN4_1, Q6ZMN7 = target: PDZRN4_1, Q6ZMN7
PDLIM1, O00151 = target: PDLIM1, O00151
APBA1_2, Q02410 = target: T11, APBA1_2, Q02410
DLG2_3, Q15700 = target: DLG2_3, Q15700
MAGI3_2, Q5TCQ9 = target: MAGI3_2, Q5TCQ9
NOS1, P29475 = target: NOS1, P29475
Inadl_10, Q8NI35 = target: Inadl_10, Q8NI35
FRMPD2_1, Q68DX3 = target: FRMPD2_1, Q68DX3
Inadl_4, Q8NI35 = target: Inadl_4, Q8NI35
Sequence of Inadl_4, Q8NI35 (Q8NI35 547-651): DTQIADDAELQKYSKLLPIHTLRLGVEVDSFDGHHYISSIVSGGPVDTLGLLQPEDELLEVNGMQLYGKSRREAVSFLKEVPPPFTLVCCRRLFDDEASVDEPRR

Sequence of Inadl_10, Q8NI35 (Q8NI35 1673-1763): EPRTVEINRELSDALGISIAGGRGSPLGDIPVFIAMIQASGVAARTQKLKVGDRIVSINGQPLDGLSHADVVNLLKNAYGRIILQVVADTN
Sequence of PDZRN4_1, Q6ZMN7 (Q6ZMN7 213-318): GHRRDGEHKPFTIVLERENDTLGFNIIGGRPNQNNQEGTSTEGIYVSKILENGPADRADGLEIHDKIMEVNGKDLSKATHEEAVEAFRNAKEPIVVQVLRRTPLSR
Sequence of NOS1, P29475 (P29475 9-101): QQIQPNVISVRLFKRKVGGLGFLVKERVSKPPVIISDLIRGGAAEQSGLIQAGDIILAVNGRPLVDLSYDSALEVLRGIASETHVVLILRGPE
Sequence of Inadl_1, Q8NI35 (Q8NI35 113-229): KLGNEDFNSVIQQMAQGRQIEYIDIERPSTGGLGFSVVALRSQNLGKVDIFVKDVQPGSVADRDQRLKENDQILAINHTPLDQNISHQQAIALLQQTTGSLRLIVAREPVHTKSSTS
Sequence of MAGI3_2, Q5TCQ9 (Q5TCQ9 398-503): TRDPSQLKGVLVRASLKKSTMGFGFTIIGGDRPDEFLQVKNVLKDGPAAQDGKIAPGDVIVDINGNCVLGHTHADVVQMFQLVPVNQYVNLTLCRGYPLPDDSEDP
Sequence of NHERF4_2, Q86UT5 (Q86UT5 220-308): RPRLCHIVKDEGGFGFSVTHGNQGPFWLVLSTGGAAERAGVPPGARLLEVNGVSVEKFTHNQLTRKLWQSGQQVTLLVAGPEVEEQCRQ
Sequence of Inadl_6, Q8NI35 (Q8NI35 1058-1167): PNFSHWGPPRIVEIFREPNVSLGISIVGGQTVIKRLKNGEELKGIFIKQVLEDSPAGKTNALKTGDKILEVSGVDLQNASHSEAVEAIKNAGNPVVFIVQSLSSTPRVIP
Sequence of FRMPD2_1, Q68DX3 (Q68DX3 770-861): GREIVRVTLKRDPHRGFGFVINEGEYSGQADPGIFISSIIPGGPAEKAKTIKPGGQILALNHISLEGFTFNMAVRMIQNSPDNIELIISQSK
Sequence of PTPN3, P26045 (P26045 505-587): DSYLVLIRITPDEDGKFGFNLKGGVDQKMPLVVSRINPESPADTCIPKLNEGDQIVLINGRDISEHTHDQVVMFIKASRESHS
Sequence of FRMPD4, Q14CM0 (Q14CM0 67-160): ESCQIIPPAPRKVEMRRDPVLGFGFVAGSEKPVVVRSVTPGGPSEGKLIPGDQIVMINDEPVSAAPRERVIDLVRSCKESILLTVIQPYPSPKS
Sequence of FRMPD3, Q5JV73 (Q5JV73 12-100): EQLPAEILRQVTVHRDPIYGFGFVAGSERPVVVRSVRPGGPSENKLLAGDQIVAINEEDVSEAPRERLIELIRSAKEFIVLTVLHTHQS
Sequence of PDLIM1, O00151 (O00151 1-87): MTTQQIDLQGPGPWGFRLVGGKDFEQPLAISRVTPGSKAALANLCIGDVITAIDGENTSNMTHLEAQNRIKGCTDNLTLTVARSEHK
Sequence of MAGI2_3, Q86UL8 (Q86UL8 600-682): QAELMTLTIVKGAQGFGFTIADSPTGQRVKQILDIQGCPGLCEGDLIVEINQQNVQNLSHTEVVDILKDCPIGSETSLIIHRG
Sequence of LNX1_3, Q8TBB1 (Q8TBB1 500-596): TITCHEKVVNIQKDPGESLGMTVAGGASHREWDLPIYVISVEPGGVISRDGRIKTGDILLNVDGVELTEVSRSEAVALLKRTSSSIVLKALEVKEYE

pKd (FRMPD3, Q5JV73) | pKd (MAGI2_3, Q86UL8) | pKd (MPDZ_5, O75970) | pKd (PDZD7_3, Q9H5P4) | pKd (PTPN3, P26045) | pKd (SHANK1, Q9Y566) | pKd (LNX1_3, Q8TBB1) | pKd (DFNB31_3, Q9P202) | pKd (GRIP1_5, Q9Y3R0) | pKd (PARD3B_1, Q8TEW8) | pKd (SIPA1L2, Q9P2F8) | pKd (Inadl_6, Q8NI35) | pKd (NHERF4_2, Q86UT5) | pKd (GRIP1_4, Q9Y3R0) | pKd (FRMPD4, Q14CM0) | pKd (FRMPD1, Q5SYB0) | pKd (Inadl_1, Q8NI35) | pKd (LNX2_2, Q8N448) | pKd (PDZRN4_1, Q6ZMN7) | pKd (PDLIM1, O00151) | Binder | other results
3.7 | below the threshold | below the threshold | below the threshold | 4.14 | below the threshold | below the threshold | below the threshold | below the threshold | below the threshold | below the threshold | below the threshold | below the threshold | below the threshold | 4.69 | below the threshold | below the threshold | below the threshold | below the threshold | below the threshold | SDSSGQEYSL [KCTD3, Q9Y597] | pKd (APBA1_2, Q02410): 3.65; pKd (DLG2_3, Q15700): below the threshold; pKd (MAGI3_2, Q5TCQ9): below the threshold; pKd (NOS1, P29475): 3.61; pKd (Inadl_10, Q8NI35): below the threshold; pKd (FRMPD2_1, Q68DX3): below the threshold; pKd (Inadl_4, Q8NI35): below the threshold
below the threshold | below the threshold | below the threshold | below the threshold | below the threshold | 3.53 | below the threshold | below the threshold | below the threshold | below the threshold | below the threshold | below the threshold | below the threshold | below the threshold | below the threshold | below the threshold | below the threshold | below the threshold | below the threshold | below the threshold | ESLLLGPSNF [SHROOM4, Q9ULL8] | pKd (APBA1_2, Q02410): below the threshold; pKd (DLG2_3, Q15700): below the threshold; pKd (MAGI3_2, Q5TCQ9): below the threshold; pKd (NOS1, P29475): below the threshold; pKd (Inadl_10, Q8NI35): below the threshold; pKd (FRMPD2_1, Q68DX3): below the threshold; pKd (Inadl_4, Q8NI35): below the threshold
